Data on 14 molecules can be found in paper PMC8776815, “Rational design of a helical peptide inhibitor targeting c-Myb–KIX interaction” (Scientific Reports, 2022).

The target in experiment [1] is T1, KIX domain of CBP (c-Myb/pKID site) (Mus musculus, UniProt P45481).
T1 construct: KIX (residues 586–672 of mouse CBP); 6xHis-tag with thrombin cleavage site (MGHHHHHHSSGLVPR) (N); made in house; host or cells: E. coli BL21(DE3)pLysS for KIX; E. coli BL21(DE3) for MLL28
Briefly: Isothermal titration calorimetry (ITC) of KIX binding of Myb32 peptides. The note with it: 20 mM Tris-acetate pH 7.0, 50 mM NaCl, 30 °C, 600 μM Myb32 into 45 µM KIX + 90 µM MLL28, mean ± standard error, more than two measurements, read-out: Kd (dissociation constant for KIX binding). From the text: Next, we performed isothermal titration calorimetry (ITC) measurements to investigate the KIX-binding affinity of the peptides. Although Myb32 primarily binds the c-Myb/pKID site on KIX, previous studies have shown that it also binds the MLL site, located opposite the c-Myb/pKID site[38]. Therefore, to prevent the secondary binding of Myb32, we conducted all ITC experiments in the presence of the MLL TAD peptide (residues 2842–2869, called MLL28) with a two-fold excess of MLL over KIX[38].
ITC measurements were conducted using a MicroCal iTC200 (Malvern Panalytical Ltd., Malvern, United Kingdom) in ITC buffer at 30 °C. All samples were dialyzed sufficiently before the experiments. 600 μM Myb32 was titrated into the cell containing 45 µM KIX and 90 µM MLL28. The data were analyzed using Origin software (OriginLab Co., Northampton, MA, USA) to obtain the Kd, stoichiometry of binding (N), and enthalpy change upon binding (ΔH). The Gibbs free energy change (ΔG) and entropy change (ΔS) upon binding were obtained as follows:3 ΔG=-RTln1/Kd 4 ΔS=ΔH-ΔG/T where R is the gas constant, and T is the temperature.
A general note: ITC needs no label: the signal is the heat of the interaction.

The target of the next experiment is CBP KIX (Mus musculus) (UniProt P45481). The note with it: cited from earlier work.
Sequence of CBP KIX (Mus musculus) (P45481 583-668): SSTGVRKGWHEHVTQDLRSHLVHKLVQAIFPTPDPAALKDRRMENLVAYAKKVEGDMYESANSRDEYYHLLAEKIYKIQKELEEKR
For another experiment, the target named is KIX. The note with it: previous studies; read-out: Kd (dissociation constant for KIX binding); cited from earlier work. From the text: Although the c-Myb TAD is intrinsically disordered, the region of residues 284–315, called Myb32, has a high helical propensity. […] Moreover, Myb32 is known to bind KIX by a conformational selection mechanism. This information may provide a clue to improve the binding affinity to KIX[38],[40]. Therefore, Myb32 is a suitable template for designing peptide inhibitors.

The target of experiment [2] is T2, KIX domain of CREB-binding protein (residues 586-672 of mouse CBP) without a His-tag (mouse, UniProt P45481 586-672).
T2 construct: KIX domain, residues 586-672 of mouse CBP; the thrombin site ends in LVPR followed by G586 of KIX; also called KIX without a His-tag; source: E. coli BL21(DE3)pLysS, purified (Ni-NTA, thrombin cleavage, size exclusion chromatography); not shown: His6, N-terminal, cleaved
T2 sequence (P45481 586-672): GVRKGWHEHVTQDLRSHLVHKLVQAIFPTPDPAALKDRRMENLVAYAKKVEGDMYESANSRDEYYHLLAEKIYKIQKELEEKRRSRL
Put plainly: SPR; competitive binding assay (OpenSPR, localized SPR); His-tag-GB1-Myb32 wild type immobilised by amine coupling; 1 uM KIX without His-tag injected alone or mixed with inhibitor (1 nM to 300 uM); 20 mM sodium phosphate pH 7.0, 300 mM NaCl; 30 °C. The note with it: both partners purified. A general note: SPR reads the build-up and loss of mass on a sensor chip optically.

Experiment [3] deals with T3, KIX domain of CBP in the presence of the MLL TAD peptide MLL28 (two-fold excess of MLL28 over KIX) (mouse | human, UniProt P45481 586-672; Q03164 2842-2869).
T3 construct: KIX domain, residues 586-672 of mouse CBP; single Tyr residue attached at the C-terminus of MLL28 for concentration determination; A Gly left at the N-terminus after thrombin cleavage is stated only for Myb32, it is likely on MLL28 too; also called KIX and MLL28; source: E. coli BL21(DE3)pLysS (KIX) and BL21(DE3) (MLL28), each purified; 45 uM KIX and 90 uM MLL28 together in the ITC cell; not …
T3 sequence (P45481 586-672, chain 1 of 2): as the sequence (P45481 586-672) above
T3 sequence (Q03164 other isoform, or with tags, fused parts or gaps, chain 2 of 2): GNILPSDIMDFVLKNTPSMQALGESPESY
Briefly: ITC; 600 uM Myb32 peptide titrated into the cell with 45 uM KIX and 90 uM MLL28; 20 mM Tris-acetate pH 7.0, 50 mM NaCl; 30 °C. The note with it: both partners purified.

Experiment [4] addresses T3, KIX domain of CBP in the presence of …. Briefly: ITC; under the conditions of the SPR measurement: 20 mM sodium phosphate pH 7.0, 300 mM NaCl; in the presence of MLL28 (all ITC experiments). The note with it: both partners purified.

No end group written: not given here.

For “GYNDEDPEKERRIKELELLLMSTENELKGQQAL [K293R]”, the Kd (as a rule, the concentration at which binding is half-saturated) in experiment [1] came out at 220 ± 10 nM.

Take c-Myb TAD TAD (from UniProt P06876): in the experiment with CBP KIX (Mus musculus), the equilibrium dissociation constant (Kd) is 500 nM.

“c-Myb TAD full length: full-length transactivation domain of c-Myb (residues 275–327), intrinsically disordered (PAAAAIQRHYNDEDPEKEKRIKELELLLMSTENELKGQQVLPTQNHTCSYPGW; transactivation domain; UniProt P10242 275-327, looked up, fragment)”: the Kd on KIX was 500 nM.

In the case of GYNDEDPEKEKRIKELELLLMSTENELKGQQAL [WT], the equilibrium dissociation constant (Kd) in experiment [1] is 220 ± 10 nM.

B1: His-tag-GB1-Myb32 (wild-type Myb32 with a His-tag and GB1) (peptide)
chain: YNDEDPEKEKRIKELELLLMSTENELKGQQAL
notes: Myb32, residues 284-315 of mouse c-Myb; 6xHis-tag, B1 domain of protein G and the thrombin cleavage site stand before Myb32; coupled to the chip by amine coupling; also called immobilized wild-type Myb32; His-tagged Myb32 protein; source: E. coli BL21(DE3), purified (Ni-NTA, eluted with imidazole); not shown: His6, N-terminal, kept; GB1, N-terminal, kept
On to B1, for which the binding result in experiment [2] is given as “binds”.

B2: Myb32 wild type (residues 284-315 of mouse c-Myb, transactivation domain fragment) (peptide)
chain: GYNDEDPEKEKRIKELELLLMSTENELKGQQAL
notes: additional Gly residue left at the N-terminus after thrombin cleavage; Myb32, residues 284-315 of mouse c-Myb; 33-residue peptide (Gly + 32 residues); also called WT; wild-type Myb32; source: E. coli BL21(DE3), purified (Ni-NTA, thrombin cleavage on the column, DEAE anion exchange); not shown: His6, N-terminal, cleaved; GB1, N-terminal, cleaved
With B2, in experiment [3], the Kd was 220 nM; the dH is -6.49 kcal mol^–1; the stoichiometry N (commonly the number of molecules, sites or subunits per partner or assembly) was determined as 0.97. Besides, in experiment [2], the IC50 (in general, the concentration needed to halve the response being measured) is 10900 nM. Also, in experiment [4], the Kd is 510 nM, the dH was -13.8 kcal mol^–1 and the “stoichiometry N” value was 0.99.

B3: Myb32 K291R (peptide)
chain: GYNDEDPEREKRIKELELLLMSTENELKGQQAL
notes: additional Gly residue left at the N-terminus after thrombin cleavage; Myb32, residues 284-315 of mouse c-Myb; source: E. coli BL21(DE3), purified (Ni-NTA, thrombin cleavage on the column, DEAE anion exchange); not shown: His6, N-terminal, cleaved; GB1, N-terminal, cleaved
Consider B3, for which, in experiment [3], the dissociation constant Kd was found to be 210 nM, the dH is -6.46 kcal mol^–1 and the “stoichiometry N” value worked out at 0.97.

B4: Myb32 K293R/K296R (peptide)
chain: GYNDEDPEKERRIRELELLLMSTENELKGQQAL
notes: as for B3
Regarding B4, in experiment [3], the Kd came to 130 nM, the dH is -7.31 kcal mol^–1 and the “stoichiometry N” value was 0.96.

B5: Myb32 K291R/K293R (peptide)
chain: GYNDEDPERERRIKELELLLMSTENELKGQQAL
notes: as for B3
With B5, in experiment [3], the Kd worked out at 140 nM, the dH was -7.31 kcal mol^–1 and the “stoichiometry N” value was determined as 0.84.

B6: Myb32 E292L (peptide)
chain: GYNDEDPEKLKRIKELELLLMSTENELKGQQAL
notes: as for B3
For the molecule B6, in experiment [3], the Kd was 480 nM, the dH is -5.45 kcal mol^–1 and the “stoichiometry N” value stood at 0.92.

B7: Myb32 K291R/K293R/K296R triple mutant (RRR) (peptide)
chain: GYNDEDPERERRIRELELLLMSTENELKGQQAL
notes: additional Gly residue left at the N-terminus after thrombin cleavage; Myb32, residues 284-315 of mouse c-Myb; also called RRR Myb32 mutant; source: E. coli BL21(DE3), purified (Ni-NTA, thrombin cleavage on the column, DEAE anion exchange); not shown: His6, N-terminal, cleaved; GB1, N-terminal, cleaved
With B7, in experiment [3], the Kd amounted to 80 nM, the dH is -7.57 kcal mol^–1 and the “stoichiometry N” value was determined as 0.99. This molecule also registered an IC50 in experiment [2] of 5600 nM. In addition, in experiment [4], the Kd was found to be 260 nM, the dH is -14.8 kcal mol^–1 and the “stoichiometry N” value stood at 0.99.

B8: Myb32 K296R (peptide)
chain: GYNDEDPEKEKRIRELELLLMSTENELKGQQAL
notes: as for B3
With B8, in experiment [3], the Kd amounted to 160 nM, the dH is -6.3 kcal mol^–1 and the “stoichiometry N” value turned out to be 0.96.

B9: Myb32 K291R/K296R (peptide)
chain: GYNDEDPEREKRIRELELLLMSTENELKGQQAL
notes: as for B3
B9: in experiment [3], the Kd was 120 nM, the dH is -7.56 kcal mol^–1 and the “stoichiometry N” value was 0.9.

B10: Myb32 K293R (peptide)
chain: GYNDEDPEKERRIKELELLLMSTENELKGQQAL
notes: as for B3
In the case of B10, in experiment [3], the dH is -7.03 kcal mol^–1 and the “stoichiometry N” value was 0.94.
